Source: patent US20140147868A1
Positions of bridges follow the written chain, without caps; N, C: chain ends. No end group written: not given here.

Assays:
[1] = target: bovine serum albumin (bovine) (UniProt P02769); assay: phage ELISA, BSA only, 10^10 phagemid per well
[2] = target: bovine serum albumin (bovine) (UniProt P02769); assay: phage ELISA, BSA only, 10^9 phagemid per well
[3] = target: unrelated control antibody; assay: phage ELISA, coated control mAb, 10^9 phagemid per well
[4] = target: bovine serum albumin (bovine) (UniProt P02769); assay: phage ELISA, BSA only, 10^8 phagemid per well
[5] = target: unrelated control antibody; assay: phage ELISA, coated control mAb, 10^10 phagemid per well
[6] = target: unrelated control antibody; assay: phage ELISA, coated control mAb, 10^8 phagemid per well

bovine serum albumin (bovine), sequence (P02769 25-607 limits assumed): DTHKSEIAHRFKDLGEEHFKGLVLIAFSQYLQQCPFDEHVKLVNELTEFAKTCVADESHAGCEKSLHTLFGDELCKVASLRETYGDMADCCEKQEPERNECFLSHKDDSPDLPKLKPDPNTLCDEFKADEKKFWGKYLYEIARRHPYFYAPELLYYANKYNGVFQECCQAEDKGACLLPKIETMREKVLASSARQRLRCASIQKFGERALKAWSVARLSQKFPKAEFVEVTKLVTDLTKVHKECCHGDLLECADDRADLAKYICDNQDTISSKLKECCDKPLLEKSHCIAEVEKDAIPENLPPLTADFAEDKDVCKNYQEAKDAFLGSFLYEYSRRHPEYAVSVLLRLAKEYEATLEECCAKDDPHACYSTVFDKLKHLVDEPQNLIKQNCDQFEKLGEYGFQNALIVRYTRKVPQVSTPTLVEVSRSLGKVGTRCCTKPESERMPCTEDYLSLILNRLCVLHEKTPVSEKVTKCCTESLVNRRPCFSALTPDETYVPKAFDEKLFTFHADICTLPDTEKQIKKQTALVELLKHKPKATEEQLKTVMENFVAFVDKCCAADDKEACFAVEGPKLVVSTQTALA

Row | Binder | ELISA (absorbance units) (absorbance units) [1] | ELISA (absorbance units) (absorbance units) [2] | ELISA (absorbance units) (absorbance units) [3] | ELISA (absorbance units) (absorbance units) [4] | ELISA (absorbance units) (absorbance units) [5] | ELISA (absorbance units) (absorbance units) [6]
1 | CSGLYPWDMFRCS (disulfide 1-12 (inferred); also: displayed on phage (phagemid)) [phagemid CS1-9p (phage-displayed disulfide cyclized 13 mer peptide)] | 0.221 | 0.22 | 0.204 | 0.216 | 0.213 | 0.209
2 | CSGLYPWDYFMCS (disulfide 1-12 (inferred); also: displayed on phage (phagemid)) [phagemid CS1-29p (phage-displayed disulfide cyclized 13 mer peptide)] | 0.141 | 0.147 | 0.136 | 0.127 | 0.148 | 0.125
3 | CSFRYLWDQDRCS (disulfide 1-12 (inferred); also: displayed on phage (phagemid)) [phagemid CS1-6p (phage-displayed disulfide cyclized 13 mer peptide)] | 0.275 | 0.27 | 0.172 | 0.254 | 0.203 | 0.173
4 | CSFFYSLCYCWCS (disulfide (positions not given here); also: four Cys, disulfide pairing not given here) [phagemid CS1-31p (phage-displayed disulfide cyclized 13 mer peptide)] | 0.112 | 0.114 | 0.118 | 0.109 | 0.125 | 0.116
5 | CSFRYQWDMFRCS (disulfide 1-12 (inferred); also: displayed on phage (phagemid)) [phagemid CS1-11p (phage-displayed disulfide cyclized 13 mer peptide)] | 0.304 | 0.278 | 0.258 | 0.268 | 0.242 | 0.252
6 | CSLFYLWDQDRCS (disulfide 1-12 (inferred); also: displayed on phage (phagemid), coat fusion not given here) [phagemid CS1-2p (phage-displayed disulfide cyclized 13 mer peptide)] | 0.327 | 0.277 | 0.199 | 0.264 | 0.228 | 0.188
